Columns and labels:
[1] = target: carboxymethyl lysine conjugated to keyhole limpet hemocyanin (CML-KLH); experiment: direct binding ELISA, CML-KLH coat 1 µg/mL, antibody at 0 µg/mL (buffer control well, background)
[2] = target: carboxymethyl lysine conjugated to keyhole limpet hemocyanin (CML-KLH); experiment: direct binding ELISA, CML-KLH coat 1 µg/mL, antibody at 50 µg/mL
[3] = target: carboxymethyl lysine conjugated to keyhole limpet hemocyanin (CML-KLH); experiment: direct binding ELISA, CML-KLH coat 1 µg/mL, antibody at 5.56 µg/mL
[4] = target: carboxymethyl lysine conjugated to keyhole limpet hemocyanin (CML-KLH); experiment: direct binding ELISA, CML-KLH coat 1 µg/mL, antibody at 16.67 µg/mL
[5] = target: carboxymethyl lysine conjugated to keyhole limpet hemocyanin (CML-KLH); experiment: direct binding ELISA, CML-KLH coat 1 µg/mL, antibody at 1.85 µg/mL
[6] = target: carboxymethyl lysine conjugated to keyhole limpet hemocyanin (CML-KLH); experiment: direct binding ELISA, CML-KLH coat 1 µg/mL, antibody at 0.62 µg/mL
[7] = target: carboxymethyl lysine conjugated to keyhole limpet hemocyanin (CML-KLH); experiment: direct binding ELISA, CML-KLH coat 1 µg/mL, antibody at 0.07 µg/mL
[8] = target: carboxymethyl lysine conjugated to keyhole limpet hemocyanin (CML-KLH); experiment: direct binding ELISA, CML-KLH coat 1 µg/mL, antibody at 0.21 µg/mL

OD450 [1]: 0.09 OD450
OD450 [2]: 0.462 OD450
OD450 [3]: 0.165 OD450
OD450 [4]: 0.312 OD450
OD450 [5]: 0.092 OD450
OD450 [6]: 0.083 OD450
OD450 [7]: 0.086 OD450
OD450 [8]: 0.075 OD450
Substance: carboxymethyl lysine MAb (Clone 318003), R&D Systems, Inc., catalog no. MAB3247 (antibody)

From patent publication US20210253737A1
